Values of other authors as cited in patent US20230107428A1 (priority 2021, published 2023).

T1: interleukin-6 receptor (Homo sapiens, UniProt P08887)
T1 construct: host or cells: patients (endogenous receptor)
T1 sequence (P08887 20-468): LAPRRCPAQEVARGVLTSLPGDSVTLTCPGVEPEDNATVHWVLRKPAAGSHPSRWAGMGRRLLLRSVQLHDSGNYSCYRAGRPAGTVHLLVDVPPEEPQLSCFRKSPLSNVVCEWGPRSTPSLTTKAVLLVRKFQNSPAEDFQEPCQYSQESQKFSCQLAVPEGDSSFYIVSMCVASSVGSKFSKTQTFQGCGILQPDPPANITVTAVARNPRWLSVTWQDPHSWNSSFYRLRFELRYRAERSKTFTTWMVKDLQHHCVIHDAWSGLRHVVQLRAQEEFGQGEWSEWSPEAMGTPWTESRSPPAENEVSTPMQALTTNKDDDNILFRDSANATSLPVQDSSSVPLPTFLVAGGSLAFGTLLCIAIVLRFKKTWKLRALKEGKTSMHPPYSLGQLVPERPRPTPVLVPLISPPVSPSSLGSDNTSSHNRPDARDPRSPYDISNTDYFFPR


What was measured:
hepatitis B virus = conditions: in vitro; cited from earlier work
interleukin-6 receptor = target: T1, interleukin-6 receptor; conditions: tocilizumab or sarilumab, intensive care units; cited from earlier work

Row | Molecule | inhibition of hepatitis B virus (hepatitis B virus) | survival in severe patients (interleukin-6 receptor)
1 | CC(=O)O[C@H]([C@@H]1C[C@@H](C)C2=C3C=C[C@H]4[C@@]5(C)CCC(=O)C(C)(C)[C@@H]5CC[C@]4(C)[C@@]3(C)C[C@@H]2O1)C(C)(C)O [Alisol O] | could inhibit | 
2 | tocilizumab [reference compound] |  | increased
3 | sarilumab (antibody, chains of the INN, looked up, V domains shown) VH: EVQLVESGGGLVQPGRSLRLSCAASRFTFDDYAMHWVRQAPGKGLEWVSGISWNSGRIGYADSVKGRFTISRDNAENSLFLQMNGLRAEDTALYYCAKGRDSFDIWGQGTMVTVSS VL: DIQMTQSPSSVSASVGDRVTITCRASQGISSWLAWYQQKPGKAPKLLIYGASSLESGVPSRFSGSGSGTDFTLTISSLQPEDFASYYCQQANSFPYTFGQGTKLEIK |  | increased
